Measurements: patent US20060257938A1, “Method of screening for drugs that block ligand binding to a lipid binding protein” (priority 2005, published 2006)
Substitutions are numbered along the chain they refer to. Values joined by “and” are separate entries in the source; they are usually repeats but may differ in a detail not shown here. Identical values can stand only once.

B1: 126F, 72A (protein, listed as Rattus norvegicus)
chain: AFDGTWKVDRNENYEKFMEKMGINVVKRKLGAHDNLKLTITQEGNKFTVKESSNFRNIDVVFELGVDFAYSAADGTELTGTWTMEGNKLVGKFKRVDNGKELIAVREISGNELIQTYTYEGVEAKFIFKKE
modifications: PEPTIDE (1)...(131) wild-type rat intestinal fatty acid binding protein
B2: 126M, 72A (protein, listed as Rattus norvegicus)
chain: B1 chain with F126M
modifications: PEPTIDE (1)...(131) wild-type rat intestinal fatty acid binding protein
B3: 14Q, 72A (protein, listed as Rattus norvegicus)
chain: B1 chain with Y14Q, F126R
modifications: PEPTIDE (1)...(131) wild-type rat intestinal fatty acid binding protein
B4: 14L, 72A (protein, listed as Rattus norvegicus)
chain: B1 chain with Y14L, F126R
modifications: PEPTIDE (1)...(131) wild-type rat intestinal fatty acid binding protein
B5: 14H, 72A (protein, listed as Rattus norvegicus)
chain: B1 chain with Y14H, F126R
modifications: PEPTIDE (1)...(131) wild-type rat intestinal fatty acid binding protein
B6: 14E, 72A (protein, listed as Rattus norvegicus)
chain: B1 chain with Y14E, F126R
modifications: PEPTIDE (1)...(131) wild-type rat intestinal fatty acid binding protein
B7: 14F, 72A (protein, listed as Rattus norvegicus)
chain: B1 chain with Y14F, F126R
modifications: PEPTIDE (1)...(131) wild-type rat intestinal fatty acid binding protein
B8: 14P, 72A (protein, listed as Rattus norvegicus)
chain: B1 chain with Y14P, F126R
modifications: PEPTIDE (1)...(131) wild-type rat intestinal fatty acid binding protein
B9: 14M, 72A (protein, listed as Rattus norvegicus)
chain: B1 chain with Y14M, F126R
modifications: PEPTIDE (1)...(131) wild-type rat intestinal fatty acid binding protein
B10: 14D, 72A (protein, listed as Rattus norvegicus)
chain: B1 chain with Y14D, F126R
modifications: PEPTIDE (1)...(131) wild-type rat intestinal fatty acid binding protein
B11: 14N, 72A (protein, listed as Rattus norvegicus)
chain: B1 chain with Y14N, F126R
modifications: PEPTIDE (1)...(131) wild-type rat intestinal fatty acid binding protein
B12: 14K, 72A (protein, listed as Rattus norvegicus)
chain: B1 chain with Y14K, F126R
modifications: PEPTIDE (1)...(131) wild-type rat intestinal fatty acid binding protein
B13: 126I, 72A (protein, listed as Rattus norvegicus)
chain: B1 chain with F126I
modifications: PEPTIDE (1)...(131) wild-type rat intestinal fatty acid binding protein
B14: 14I, 72A (protein, listed as Rattus norvegicus)
chain: B1 chain with Y14I, F126R
modifications: PEPTIDE (1)...(131) wild-type rat intestinal fatty acid binding protein
B15: 14A, 72A (protein, listed as Rattus norvegicus)
chain: B1 chain with Y14A, F126R
modifications: PEPTIDE (1)...(131) wild-type rat intestinal fatty acid binding protein
B16: 126H, 72A (protein, listed as Rattus norvegicus)
chain: B1 chain with F126H
modifications: PEPTIDE (1)...(131) wild-type rat intestinal fatty acid binding protein
B17: 102I, 72A (protein, listed as Rattus norvegicus)
chain: B1 chain with L102I, F126R
modifications: PEPTIDE (1)...(131) wild-type rat intestinal fatty acid binding protein
B18: 14G, 72A (protein, listed as Rattus norvegicus)
chain: B1 chain with Y14G, F126R
modifications: PEPTIDE (1)...(131) wild-type rat intestinal fatty acid binding protein
B19: 126V, 72A (protein, listed as Rattus norvegicus)
chain: B1 chain with F126V
modifications: PEPTIDE (1)...(131) wild-type rat intestinal fatty acid binding protein
B20: 126L, 72A (protein, listed as Rattus norvegicus)
chain: B1 chain with F126L
modifications: PEPTIDE (1)...(131) wild-type rat intestinal fatty acid binding protein

assay: Probe fluorescence ratio response to linoleic acid relative to ADIFAB2; assay type: binding; conditions: response relative to ADIFAB2
Outline: (§1)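 Each fatty acid's response was expressed relative to ADIFAB2, the rI-FABP-L72A probe, as ΔR/ΔRreference. ΔR is the change in the background-corrected two-wavelength intensity ratio R=Fλ1/Fλ2 from its analyte-free baseline R0. Emission was read near about 420-480 nm for unbound and about 495-580 nm for FFA-bound probe.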

Molecule | DR/DR LA
B1 | 0.51
B2 | 0.31
B3 | 0.48
B4 | 0.87
B5 | 0.45
B6 | 0.56
B7 | 0.88
B8 | 0.64
B9 | 0.68 and 0.685
B10 | 0.53
B11 | 0.49
B12 | 1.06
B13 | 0.43
B14 | 0.79 and 0.792
B15 | 0.56
B16 | 0.46
B17 | 1.90 and 1.902
B18 | 0.42
B19 | 0.45
B20 | 0.64

assay: Probe fluorescence ratio response to linolenic acid relative to ADIFAB2; assay type: binding; conditions: response relative to ADIFAB2
Outline: as §1

Molecule | DR/DR LNA
B1 | 0.53
B2 | 0.28
B3 | 0.52
B4 | 0.93
B5 | 0.42
B6 | 0.61
B7 | 0.88
B8 | 0.64
B9 | 0.68 and 0.684
B10 | 0.51
B11 | 0.53
B12 | 0.92
B13 | 0.43
B14 | 0.90 and 0.899
B15 | 0.56
B16 | 0.46
B17 | 1.76 and 1.763
B18 | 0.46
B19 | 0.42
B20 | 0.66

assay: Probe fluorescence ratio response to oleic acid relative to ADIFAB2; assay type: binding; conditions: response relative to ADIFAB2
Outline: as §1

Molecule | DR/DR OA
B1 | 0.43
B2 | 0.24
B3 | 0.29
B4 | 0.44
B5 | 0.25
B6 | 0.41
B7 | 0.72
B8 | 0.58
B9 | 0.41 and 0.412
B10 | 0.34
B11 | 0.35
B12 | 0.84
B13 | 0.34
B14 | 0.57 and 0.572
B15 | 0.36
B16 | 0.43
B17 | 1.93 and 1.929
B18 | 0.24
B19 | 0.33
B20 | 0.55

assay: Probe fluorescence ratio response to palmitic acid relative to ADIFAB2; assay type: binding; conditions: response relative to ADIFAB2
Outline: as §1

Molecule | DR/DR PA
B1 | 0.34
B2 | 0.29
B3 | 0.33
B4 | 3.07
B5 | 0.17
B6 | 0.44
B7 | 0.60
B8 | 0.30
B9 | 0.45 and 0.452
B10 | 0.28
B11 | 0.32
B12 | 0.47
B13 | 0.38
B14 | 0.59 and 0.586
B15 | 0.24
B16 | 0.32
B17 | 1.17 and 1.169
B18 | 0.19
B19 | 0.34
B20 | 0.38

assay: Probe fluorescence ratio response to arachidonic acid relative to ADIFAB2; assay type: binding; conditions: arachidonic acid; response relative to ADIFAB2
Outline: as §1

Molecule | DR/DR AA
B1 | 0.52
B2 | 0.32
B3 | 0.50
B4 | 0.89
B5 | 0.37
B6 | 0.51
B7 | 0.83
B8 | 0.55
B9 | 0.62 and 0.619
B10 | 0.46
B11 | 0.42
B12 | 1.08
B13 | 0.45
B14 | 0.57 and 0.572
B15 | 0.53
B16 | 0.20
B17 | 1.46 and 1.461
B18 | 0.43
B19 | 0.42
B20 | 0.66
